From patent publication US10383931B2, “Peptides and combination of peptides for use in immunotherapy against cancers” (IMMATICS BIOTECHNOLOGIES GMBH, priority 2016, dated 2019)

Target: HLA-A*02:01 (Homo sapiens, UniProt P04439, D140Y/D185E/D98H/E176V/E277Q/G131W/G231S/I119V/I121R/I166T/I218V/L300P/L318F/N151K/N90K/P208A/P217A/Q86G/Q94H/R138H/R169H/T345S)
Experiment: ELISA-based assay of affinity (KD) to HLA-A*02:01
Assay type: binding
Conditions: FIG. 5

Substance | binding to HLA-A*02:01 (dissociation constant KD, in words)
MET-001: control peptide, strong binder to HLA-A*02:01 (YVDPVITSI) | strong binder
KIQEILTQV [IGF2BP3-001, HLA-A*02-presented tumor-associated peptide] | very good binding
